Here are results for four variants from IntAct's records for PubMed 19805280.

The chains are these.
B1: Protein DOA1 (Saccharomyces cerevisiae), P36037 (parent)
chain: MGYQLSATLKGHDQDVRDVVAVDDSKVASVSRDGTVRLWSKDDQWLGTVVYTGQGFLNSVCYDSEKELLLFGGKDTMINGVPLFATSGEDPLYTLIGHQGNVCSLSFQDGVVISGSWDKTAKVWKEGSLVYNLQAHNASVWDAKVVSFSENKFLTASADKTIKLWQNDKVIKTFSGIHNDVVRHLAVVDDGHFISCSNDGLIKLVDMHTGDVLRTYEGHESFVYCIKLLPNGDIVSCGEDRTVRIWSKENGSLKQVITLPAISIWSVDCMSNGDIIVGSSDNLVRIFSQEKSRWASEDEINELSTQVEKSTISSKTIEFDESKLSPYEILQSPGRKEGQIVVVKSPQGTIEAHQFSNSSWKKVGDVVGAGATGNDKKIEFEGKTYDYVFDVDIEDGKPPLKLPINVSDNPYTAADNFLARYELPMSYRDQVVQFILKNTNGISLDQPNDNASSSAVSPSKTSVMKVLPVKQYLIMENYNPDTIFNGIVKINSNEKTFDDEILAQIGGALHDIDESWELLLSFANTIRSNWEIKTPAYDIVRLIVKKLPYSSDIKDYIEEGLGNKNITLTMLTVRILVNCFNNENWGVKLLESNQVYKSIFETIDTEFSQASAKQSQNLAIAVSTLIFNYSALVTKGNSDLELLPIVADAINTKYGPLEEYQECEEAAYRLTVAYGNLATVEPTLRQFANSVTWLANIKRSYGNVPRFKDIFDDLS

The variants in the first test derive from B1. The settings on record: with cdc48_yeast CDC48, P25694.
Chain of cdc48_yeast CDC48, P25694 (P25694 whole entry): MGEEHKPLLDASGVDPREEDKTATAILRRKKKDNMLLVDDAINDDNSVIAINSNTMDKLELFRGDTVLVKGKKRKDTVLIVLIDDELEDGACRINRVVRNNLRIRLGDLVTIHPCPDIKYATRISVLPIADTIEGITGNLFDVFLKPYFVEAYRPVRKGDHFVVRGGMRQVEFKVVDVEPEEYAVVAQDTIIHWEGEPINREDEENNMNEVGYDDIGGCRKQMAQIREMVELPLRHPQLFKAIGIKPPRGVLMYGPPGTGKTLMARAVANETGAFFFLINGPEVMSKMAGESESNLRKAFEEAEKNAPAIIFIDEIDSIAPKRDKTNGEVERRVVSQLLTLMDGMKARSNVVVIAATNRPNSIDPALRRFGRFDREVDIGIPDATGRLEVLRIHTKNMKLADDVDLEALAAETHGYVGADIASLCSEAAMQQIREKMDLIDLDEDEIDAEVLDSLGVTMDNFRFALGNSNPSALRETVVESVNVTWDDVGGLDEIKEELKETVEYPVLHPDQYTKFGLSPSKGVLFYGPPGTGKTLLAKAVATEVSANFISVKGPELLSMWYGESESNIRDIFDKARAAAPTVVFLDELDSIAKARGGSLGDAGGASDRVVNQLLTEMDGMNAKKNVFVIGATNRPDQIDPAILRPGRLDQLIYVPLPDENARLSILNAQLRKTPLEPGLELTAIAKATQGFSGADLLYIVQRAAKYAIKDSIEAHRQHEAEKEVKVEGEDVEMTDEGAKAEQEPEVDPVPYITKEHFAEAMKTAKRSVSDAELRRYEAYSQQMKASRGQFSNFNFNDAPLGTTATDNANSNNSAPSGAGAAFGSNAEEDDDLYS
R541A;R669A: the “effect of a mutation on the interaction” value is “disrupting interaction”.

The variants in a further test derive from B1. The settings on record: with cdc48_yeast CDC48, P25694. This is another data set of the same source.
As for R541A, the “effect of a mutation on the interaction” value was “disrupting interaction”.

Consider R669A, for which the “effect of a mutation on the interaction” value is “decreasing interaction”.

Turning to N578A, the “effect of a mutation on the interaction” value is on record as “decreasing interaction”.
